These results are taken from paper doi:10.1101/2020.09.15.297887.

This data set has as its target PARP1 (UniProt P09874 1-1014). Kind of data set: fluorescence polarization. (In general: Fluorescence polarisation rises when a labelled molecule tumbles more slowly, as on binding a larger partner.)

Sequence of PARP1 (P09874 whole entry): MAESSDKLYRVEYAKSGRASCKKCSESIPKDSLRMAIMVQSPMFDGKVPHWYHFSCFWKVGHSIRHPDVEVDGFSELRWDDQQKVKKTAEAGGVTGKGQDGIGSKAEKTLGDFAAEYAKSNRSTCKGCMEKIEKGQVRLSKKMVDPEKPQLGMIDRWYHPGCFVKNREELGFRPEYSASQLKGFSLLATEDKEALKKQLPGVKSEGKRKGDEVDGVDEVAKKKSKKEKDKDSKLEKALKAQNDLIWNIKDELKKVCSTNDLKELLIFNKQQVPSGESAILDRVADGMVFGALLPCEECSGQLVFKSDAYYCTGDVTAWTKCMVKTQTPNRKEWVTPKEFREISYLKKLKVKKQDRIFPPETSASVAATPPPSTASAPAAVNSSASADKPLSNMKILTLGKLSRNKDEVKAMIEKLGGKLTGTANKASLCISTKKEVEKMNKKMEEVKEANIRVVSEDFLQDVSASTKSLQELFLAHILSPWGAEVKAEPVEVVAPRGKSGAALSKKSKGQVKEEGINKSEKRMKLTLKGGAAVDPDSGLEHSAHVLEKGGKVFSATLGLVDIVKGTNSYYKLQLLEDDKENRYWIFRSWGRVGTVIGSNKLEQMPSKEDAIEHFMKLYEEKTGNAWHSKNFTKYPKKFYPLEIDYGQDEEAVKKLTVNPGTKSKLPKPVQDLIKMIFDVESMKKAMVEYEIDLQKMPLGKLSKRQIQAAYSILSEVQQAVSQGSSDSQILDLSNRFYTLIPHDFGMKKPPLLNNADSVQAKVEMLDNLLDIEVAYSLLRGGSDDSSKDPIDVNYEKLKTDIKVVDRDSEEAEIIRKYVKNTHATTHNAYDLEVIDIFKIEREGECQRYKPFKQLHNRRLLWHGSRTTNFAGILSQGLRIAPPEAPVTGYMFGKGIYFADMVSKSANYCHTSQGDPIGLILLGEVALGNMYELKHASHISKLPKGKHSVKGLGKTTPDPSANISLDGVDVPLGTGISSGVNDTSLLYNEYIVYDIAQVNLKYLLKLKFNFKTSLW

B1: DNA dumbbell with single-strand break (structured_DNA)
DNA: GCTGAGCTTCTGGTGAAGCTCAGCTCGCGGCAGCTGGTGCTGCCGCGA
modifications: internal fluorescein-dT (iFluorT) at position 8
The molecule B1 came in with a Kd of 71 nM.

As usually defined, the Kd is a measure of binding affinity in units of concentration. The low end stands for higher affinity, the high end for lower affinity.
